± gives the standard deviation of the averaged measurements.
Assay: total protein half-life in vivo (active degradation + dilution); higher = more stable protein
[1] = E. coli NCM3722 delta-clpP delta-lon delta-hslV, growth: N-lim chemostat, doubling time 6 h
[2] = E. coli NCM3722 delta-clpP, growth: N-lim chemostat, doubling time 6 h
[3] = E. coli NCM3722 delta-hslV, growth: N-lim chemostat, doubling time 6 h
[4] = E. coli NCM3722 delta-lon, growth: N-lim chemostat, doubling time 6 h
[5] = E. coli NCM3722 delta-smpB, growth: N-lim chemostat, doubling time 6 h
[6] = wild type E. coli NCM3722, growth: C-lim chemostat, doubling time 3 h
[7] = wild type E. coli NCM3722, growth: C-lim chemostat, doubling time 6 h
[8] = wild type E. coli NCM3722, growth: C-lim chemostat, doubling time 12 h
[9] = wild type E. coli NCM3722, growth: N-lim chemostat, doubling time 6 h
[10] = wild type E. coli NCM3722, growth: P-lim chemostat, doubling time 6 h
[11] = wild type E. coli NCM3722, growth: P-lim chemostat, doubling time 12 h
[12] = wild type E. coli NCM3722, growth: N-lim chemostat, doubling time 12 h

Row | Sequence | total protein half-life in vivo [1] [h] | total protein half-life in vivo [2] [h] | total protein half-life in vivo [3] [h] | total protein half-life in vivo [4] [h] | total protein half-life in vivo [5] [h] | total protein half-life in vivo [6] [h] | total protein half-life in vivo [7] [h] | total protein half-life in vivo [8] [h] | total protein half-life in vivo [9] [h] | total protein half-life in vivo [10] [h] | total protein half-life in vivo [11] [h] | total protein half-life in vivo [12] [h]
1 | MTNNPLIPQSKLPQLGTTIFTQMSALAQQHQAINLSQGFPDFDGPRYLQERLAHHVAQGANQYAPMTGVQALREAIAQKTERLYGYQPDADSDITVTAGATEALYAAITALVRNGDEVICFDPSYDSYAPAIALSGGIVKRMALQPPHFRVDWQEFAALLSERTRLVILNTPHNPSATVWQQADFAALWQAIAGHEIFVISDEVYEHINFSQQGHASVLAHPQLRERAVAVSSFGKTYHMTGWKVGYCVAPAPISAEIRKVHQYLTFSVNTPAQLALADMLRAEPEHYLALPDFYRQKRDILVNALNESRLEILPCEGTYFLLVDYSAVSTLDDVEFCQWLTQEHGVAAIPLSVFCADPFPHKLIRLCFAKKESTLLAAAERLRQL | 2.63 ± 0.15 | 1.93 ± 0.071 | 1.69 ± 0.11 | 2.09 | 2.01 ± 0.052 | 2.48 ± 0.11 | 3.9 ± 0.38 | 5.92 ± 0.72 | 1.95 | 5.33 ± 1.2 | 8.16 ± 1 | 
2 | MIREAQRSELPAILELWLESTTWGHPFIKANYWRDCIPLVRDAYLANAQNWVWEEDGKLLGFVSIMEGRFLAAMFVAPKAVRRGIGKALMQYVQQRHPHLMLEVYQKNQPAINFYQAQGFHIVDCAWQDETQLPTWIMSWPVVQTL | 5.19 |  | 2.72 | 3.34 ± 0.79 |  | > 4 | 3.55 | 4.76 | 2.33 ± 0.12 | 4.08 | 6.74 ± 0.19 | 3.08 ± 0.13
3 | MKTKIPDAVLAAEVSRRGLVKTTAIGGLAMASSALTLPFSRIAHAVDSAIPTKSDEKVIWSACTVNCGSRCPLRMHVVDGEIKYVETDNTGDDNYDGLHQVRACLRGRSMRRRVYNPDRLKYPMKRVGARGEGKFERISWEEAYDIIATNMQRLIKEYGNESIYLNYGTGTLGGTMTRSWPPGNTLVARLMNCCGGYLNHYGDYSSAQIAEGLNYTYGGWADGNSPSDIENSKLVVLFGNNPGETRMSGGGVTYYLEQARQKSNARMIIIDPRYTDTGAGREDEWIPIRPGTDAALVNGLAYVMITENLVDQAFLDKYCVGYDEKTLPASAPKNGHYKAYILGEGPDGVAKTPEWASQITGVPADKIIKLAREIGSTKPAFISQGWGPQRHANGEIATRAISMLAILTGNVGINGGNSGAREGSYSLPFVRMPTLENPIQTSISMFMWTDAIERGPEMTALRDGVRGKDKLDVPIKMIWNYAGNCLINQHSEINRTHEILQDDKKCELIVVIDCHMTSSAKYADILLPDCTASEQMDFALDASCGNMSYVIFNDQVIKPRFECKTIYEMTSELAKRLGVEQQFTEGRTQEEWMRHLYAQSREAIPELPTFEEFRKQGIFKKRDPQGHHVAYKAFREDPQANPLTTPSGKIEIYSQALADIAATWELPEGDVIDPLPIYTPGFESYQDPLNKQYPLQLTGFHYKSRVHSTYGNVDVLKAACRQEMWINPLDAQKRGIHNGDKVRIFNDRGEVHIEAKVTPRMMPGVVALGEGAWYDPDAKRVDKGGCINVLTTQRPSPLAKGNPSHTNLVQVEKV | 5.175 ± 0.011 |  |  |  |  |  | 5.91 |  |  |  |  | 6.94
4 | MTTKNMNTPPGSTQENEIDLLRLVGELWDHRKFIISVTALFTLIAVAYSLLSTPIYQADTLVQVEQKQGNAILSGLSDMIPNSSPESAPEIQLLQSRMILGKTIAELNLRDIVEQKYFPIVGRGWARLTKEKPGELAISWMHIPQLNGQDQQLTLTVGENGHYTLEGEEFTVNGMVGQRLEKDGVALTIADIKAKPGTQFVLSQRTELEAINALQETFTVSERSKESGMLELTMTGDDPQLITRILNSIANNYLQQNIARQAAQDSQSLEFLQRQLPEVRSELDQAEEKLNVYRQQRDSVDLNLEAKAVLEQIVNVDNQLNELTFREAEISQLYKKDHPTYRALLEKRQTLEQERKRLNKRVSAMPSTQQEVLRLSRDVEAGRAVYLQLLNRQQELSISKSSAIGNVRIIDPAVTQPQPVKPKKALNVVLGFILGLFISVGAVLARAMLRRGVEAPEQLEEHGISVYATIPMSEWLDKRTRLRKKNLFSNQQRHRTKNIPFLAVDNPADSAVEAVRALRTSLHFAMMETENNILMITGATPDSGKTFVSSTLAAVIAQSDQKVLFIDADLRRGYSHNLFTVSNEHGLSEYLAGKDELNKVIQHFGKGGFDVITRGQVPPNPSELLMRDRMRQLLEWANDHYDLVIVDTPPMLAVSDAAVVGRSVGTSLLVARFGLNTAKEVSLSMQRLEQAGVNIKGAILNGVIKRASTAYSYGYNYYGYSYSEKE | 4.74 ± 1.7 |  |  |  |  | 1.74 ± 0.34 | 3.3 | 7.46 |  | 1.53 ± 0.24 |  | 
5 | MSYQYVNVVTINKVAVIEFNYGRKLNALSKVFIDDLMQALSDLNRPEIRCIILRAPSGSKVFSAGHDIHELPSGGRDPLSYDDPLRQITRMIQKFPKPIISMVEGSVWGGAFEMIMSSDLIIAASTSTFSMTPVNLGVPYNLVGIHNLTRDAGFHIVKELIFTASPITAQRALAVGILNHVVEVEELEDFTLQMAHHISEKAPLAIAVIKEELRVLGEAHTMNSDEFERIQGMRRAVYDSEDYQEGMNAFLEKRKPNFVGH | 5.13 |  |  |  |  | 2.48 | 2.79 | 6.64 |  |  |  | 
6 | MSSKVERERRKAQLLSQIQQQRLDLSASRREWLETTGAYDRRWNMLLSLRSWALVGSSVMAIWTIRHPNMLVRWARRGFGVWSAWRLVKTTLKQQQLRG | 5.54 ± 0.84 |  | 6 ± 0.61 | 4.6 ± 1.6 | 5.78 ± 0.53 | 2.56 ± 0.29 | 4.85 ± 0.21 | 8.71 | 5.6 ± 1.8 | 4.85 | 10.2 ± 0.32 | 11.4
7 | MKPFLRWCFVATALTLAGCSNTSWRKSEVLAVPLQPTLQQEVILARMEQILASRALTDDERAQLLYERGVLYDSLGLRALARNDFSQALAIRPDMPEVFNYLGIYLTQAGNFDAAYEAFDSVLELDPTYNYAHLNRGIALYYGGRDKLAQDDLLAFYQDDPNDPFRSLWLYLAEQKLDEKQAKEVLKQHFEKSDKEQWGWNIVEFYLGNISEQTLMERLKADATDNTSLAEHLSETNFYLGKYYLSLGDLDSATALFKLAVANNVHNFVEHRYALLELSLLGQDQDDLAESDQQ [P0AFB1] | 6.43 ± 0.4 | 6.3 ± 0.2 |  | 6.621 ± 0.019 | 6.66 ± 1.2 | 3.15 ± 0.24 | 5.9 ± 0.35 | 11.3 ± 0.48 | 6.12 ± 0.22 | 7.56 ± 0.19 | 13.1 ± 0.29 | 13.5 ± 2

Reference: the supplement of paper PMC11246515
